Results published in patent publication US20170275356A1 (Eli Lilly, published 2017).
Several values for one entry are separate records, joined by “and”; a condition that tells them apart may be missing. Equal values may be shown once.

Key:
cynomolgus monkey IL-23 [1] = molecular target: T1, cynomolgus monkey IL-23 (cynomolgus monkey); assay: SPR (BIAcore 2000), Antibody I captured on Protein A, IL-23 injected, 37 °C, n=2
T1 construct: Construct not described
Method: (§1) Antibody affinity (KD) to human, cynomolgus monkey or rabbit IL-23 is determined using a BIAcore Biosensor 2000 and BIAevaluation software with a 1:1 binding with mass transfer model. A capture protein (Protein A, Calbiochem) is coupled via free amine groups to carboxyl groups on flow cells 1 and 2 of a CM4 biosensor chip using a mixture of N-ethyl-N-(dimethylaminopropyl)-carbodiimide (EDC) and N-hydroxysuccinimide (NHS). Flow cells are monitored with a flow rate of 80 μL/minute using a buffer containing 0.01 M HEPES, pH 7.4, 150 mM NaCl, 0.005% surfactant P20. Antibody I is captured on flow cell 2 to yield a total of 40 to 60 response units (RU). Multiple cycles of increasing concentrations of IL-23 are then injected over flow cells 1 and 2 (0.62 nM to 30 nM for human and monkey IL-23 and 30 nM to 240 nM for rabbit IL-23) followed by a regeneration step using glycine-HCl (pH 1.5) between each cycle. Flow cell 1 is used as a control to monitor non-specific binding of IL-23 and the data reflects flow cell 2 minus flow cell 1. Each cycle includes an antibody capture step followed by injection of IL-23 at one concentration with a 30 minute dissociation period, then regeneration. Two cycles where buffer is injected in place of IL-23, serve as a control for baseline subtraction and correct for drift associated with the dissociation of Antibody I from the protein A surface. Affinity is measured at 37 ° C. The assay is performed 2 times with human, monkey or rabbit IL-23. Antibody I is tested 2 times each with mouse IL-23 at 333 nM, rat IL-23 at 200 nM, human IL-12 at 333 nM, human IL-27 at 500 nM or human IL-35 at 833 nM.
(§2) The on-rate (kₒₙ) and off-rate (koff) for each antigen are evaluated using a 1:1 binding with mass transfer model. The affinity (KD) is calculated from the binding kinetics according to the relationship: KD=koff/kₒₙ.

rabbit IL-23 = molecular target: T2, rabbit IL-23 (rabbit); assay: as above
T2 construct: Construct not described
Method: as §1, §2

human IL-23 [2] = molecular target: T3, human IL-23 (human, UniProt P29460 23-328); assay: as above
T3 construct: Disulfide-linked heterodimer of p19 and p40; also called Recombinant human IL-23; human interleukin-23
T3 sequence 1: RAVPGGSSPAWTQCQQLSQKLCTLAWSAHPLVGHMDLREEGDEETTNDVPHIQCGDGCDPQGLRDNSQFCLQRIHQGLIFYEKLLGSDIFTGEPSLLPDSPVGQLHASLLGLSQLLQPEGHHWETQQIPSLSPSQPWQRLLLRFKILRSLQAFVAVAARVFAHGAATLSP
T3 sequence 2: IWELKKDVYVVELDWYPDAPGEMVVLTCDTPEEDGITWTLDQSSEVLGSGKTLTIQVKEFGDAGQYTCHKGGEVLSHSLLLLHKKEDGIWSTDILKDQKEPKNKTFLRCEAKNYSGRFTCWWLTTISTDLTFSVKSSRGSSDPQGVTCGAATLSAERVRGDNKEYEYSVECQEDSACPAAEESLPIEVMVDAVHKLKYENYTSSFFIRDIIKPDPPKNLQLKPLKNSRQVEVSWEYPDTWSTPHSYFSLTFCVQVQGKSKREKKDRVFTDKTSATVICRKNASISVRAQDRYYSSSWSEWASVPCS
Method: as §1, §2

mouse IL-23 = molecular target: T4, mouse IL-23 (mouse, UniProt Q9EQ14 22-196; P43432 23-335); assay: SPR (BIAcore), Antibody I captured on Protein A, 37 °C
T4 construct: Construct not described
T4 sequence (looked up) 1: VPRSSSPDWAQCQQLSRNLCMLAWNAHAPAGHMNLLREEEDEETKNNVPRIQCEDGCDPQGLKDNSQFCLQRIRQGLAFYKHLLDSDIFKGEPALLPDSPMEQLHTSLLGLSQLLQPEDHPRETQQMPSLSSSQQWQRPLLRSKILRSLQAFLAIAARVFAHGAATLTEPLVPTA
T4 sequence (looked up) 2: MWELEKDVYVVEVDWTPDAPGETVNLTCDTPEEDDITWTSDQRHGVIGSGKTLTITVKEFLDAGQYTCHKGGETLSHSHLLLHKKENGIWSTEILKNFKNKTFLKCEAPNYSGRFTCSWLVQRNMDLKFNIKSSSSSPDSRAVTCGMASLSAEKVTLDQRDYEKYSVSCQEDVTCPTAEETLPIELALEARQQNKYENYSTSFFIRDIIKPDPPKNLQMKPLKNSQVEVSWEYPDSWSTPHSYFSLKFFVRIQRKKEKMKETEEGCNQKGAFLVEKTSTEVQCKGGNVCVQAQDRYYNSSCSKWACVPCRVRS
Method: as §1
(§3) Antibody I produces a concentration-dependent binding response with human, cynomolgus monkey, and rabbit IL-23 using this method. Saturation of binding of IL-23 is attained at a concentration of 30 nM (human and monkey) and 240 nM (rabbit) using […] of Antibody I captured on the chip surface.

human IL-35 = molecular target: T5, human IL-35 (human, UniProt P29459 23-219; Q14213 21-229, limits assumed); assay: as above
T5 construct: subunit make-up is from general knowledge
T5 sequence (looked up) 1: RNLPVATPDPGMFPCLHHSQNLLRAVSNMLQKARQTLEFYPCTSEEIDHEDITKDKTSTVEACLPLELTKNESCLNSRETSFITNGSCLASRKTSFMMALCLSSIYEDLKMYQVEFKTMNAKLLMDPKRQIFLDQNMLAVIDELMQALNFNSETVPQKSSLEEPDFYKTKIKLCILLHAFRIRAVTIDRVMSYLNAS
T5 sequence (looked up) 2: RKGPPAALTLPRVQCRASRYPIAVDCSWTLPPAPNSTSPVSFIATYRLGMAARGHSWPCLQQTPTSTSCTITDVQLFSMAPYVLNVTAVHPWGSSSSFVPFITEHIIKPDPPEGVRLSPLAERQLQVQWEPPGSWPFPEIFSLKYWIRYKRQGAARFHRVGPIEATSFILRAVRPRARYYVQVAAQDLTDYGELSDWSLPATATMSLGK
Method: as §1, §3

human IL-12 = molecular target: T6, human IL-12 (human, UniProt P29459 23-219; P29460 23-328); assay: as above
T6 construct: construct not described
T6 sequence (looked up) 1: T5 sequence (looked up) 1
T6 sequence (looked up) 2: T3 sequence 2
Method: as §1, §3

human IL-27 = molecular target: T7, human IL-27 (human, UniProt Q8NEV9 29-243; Q14213 21-229); assay: as above
T7 construct: subunit make-up is from general knowledge
T7 sequence (looked up) 1: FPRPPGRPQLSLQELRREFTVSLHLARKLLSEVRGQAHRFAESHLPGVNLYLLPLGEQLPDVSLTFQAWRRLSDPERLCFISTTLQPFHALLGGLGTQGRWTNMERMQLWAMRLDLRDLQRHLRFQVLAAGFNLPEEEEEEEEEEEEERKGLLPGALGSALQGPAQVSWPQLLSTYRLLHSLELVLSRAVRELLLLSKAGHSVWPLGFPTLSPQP
T7 sequence (looked up) 2: T5 sequence (looked up) 2
Method: as §1, §3

human IL-23 [3] = molecular target: T3, human IL-23; assay: cell-based or functional assay
cynomolgus monkey IL-23 [4] = molecular target: T1, cynomolgus monkey IL-23; assay: cell-based or functional assay
human IL-23 [5] = molecular target: T3, human IL-23; assay: cell-based or functional assay; remark: listed apart in the source

Kd (cynomolgus monkey IL-23 [1]): 0.055 nM | koff (cynomolgus monkey IL-23 [1]): 7e-05 s⁻¹ | kon (cynomolgus monkey IL-23 [1]): 1.28e+06 M⁻¹ s⁻¹ | Kd (rabbit IL-23): 53 nM | koff (rabbit IL-23): 0.00479 s⁻¹ | kon (rabbit IL-23): 90000 M⁻¹ s⁻¹ | Kd (human IL-23 [2]): 0.021 nM | koff (human IL-23 [2]): 5.2e-05 s⁻¹ | kon (human IL-23 [2]): 2.43e+06 M⁻¹ s⁻¹ | binding result (mouse IL-23): no binding (tested: 333 nM) | binding result (human IL-35): no binding (tested: 833 nM) | binding result (human IL-12): no binding (tested: 333 nM) | binding result (human IL-27): no binding (tested: 500 nM) | fold induction of murine keratin-16 after human IL-23 injection (human IL-23 [3]): 1.23 fold induction | IC50 (pM), in vitro IL-23 neutralization assay, IL-17 production by murine splenocytes (cynomolgus monkey IL-23 [4]): 110 pM and 130 pM | IC50 (pM), in vitro IL-23 neutralization assay, IL-17 production by murine splenocytes (human IL-23 [5]): 90 pM and 74 pM
B1: Antibody I (antibody, human IgG4 S228P, kappa, F234A L235A, V domains shown)
VH: QVQLVQSGAEVKKPGSSVKVSCKASGYKFTRYVMHWVRQAPGQGLEWMGYINPYNDGTNYNEKFKGRVTITADKSTSTAYMELSSLRSEDTAVYYCARNWDTGLWGQGTTVTVSS
VL: DIQMTQSPSSLSASVGDRVTITCKASDHILKFLTWYQQKPGKAPKLLIYGATSLETGVPSRFSGSGSGTDFTLTISSLQPEDFATYYCQMYWSTPFTFGGGTKVEIKR
notes: also called IL-23 Antibody
